Test results published in US20230221313A1.

Target: HIV-1 BG505.W6M.Env.C2 pseudovirus (Env) (HIV-1)
Assay: cell-based or functional assay

VRC34 (antibody)
Fold change GFP-/GFP+ (droplet neutralization, NGS reads), Round 1: 1.78

anti-HIV antibody VRC01
Fold change GFP-/GFP+ (droplet neutralization, NGS reads), Round 1: 1.08
